Assay results from patent US11833164B2, “Methods of treating Fabry disease in patients having a mutation in the GLA gene” (Amicus Therapeutics, Inc., priority 2019, dated 2023).

Tested on: mutant form of α-Gal A expressed in HEK-293 cells
Assay: HEK assay (GLP HEK / Migalastat Amenability Assay): α-Gal A activity in lysates of transiently transfected HEK-293 cells incubated with or without 10 μM migalastat
Assay type: cell-based, human
Conditions: for Absolute increase (% WT): 10 μM migalastat versus baseline; for Relative increase: 10 μM migalastat α-Gal A activity relative to baseline; for 10 μM migalastat α-Gal A activity (% WT): 5 days; for 10 μM migalastat α-Gal A activity (% WT) / Baseline α-Gal A activity (% WT): percentage of baseline wild-type α-Gal A activity; for 10 μM migalastat α-Gal A activity (% WT) / Baseline α-Gal A activity (% WT) / Baseline α-Gal A activity / 10 μM migalastat α-Gal A activity: mean ± SEM; for Baseline α-Gal A activity (% WT): absence of migalastat; for Baseline α-Gal A activity / 10 μM migalastat α-Gal A activity: lysates of HEK-293 cells transfected with the mutant form; for Baseline α-Gal A activity: incubated 5 days in the absence of migalastat; for 10 μM migalastat α-Gal A activity: incubated 5 days with 10 μM migalastat
Method: Such mutations or variants are also referred to herein as “HEK assay amenable” mutations or variants.
The α-Gal A activity is expressed as the nmoles of free 4-MU released per milligram of protein per hour (nmol/mg/hr).
In Table 7, values for the mean±standard error of the mean (SEM) were calculated. nmol/mg/hr indicates “nmoles of free 4-MU released per mg of protein per hour”. WT indicates “wild-type”. NC indicates “not calculable”. N/A indicates “not applicable”.

Row | Molecule | Absolute increase (% WT) | Relative increase | 10 μM migalastat α-Gal A activity (% WT) | Baseline α-Gal A activity (% WT) | Baseline α-Gal A activity [nmol/mg/h] | 10 μM migalastat α-Gal A activity [nmol/mg/h]
1 | Y123F (protein) MQLRNPELHLGCALALRFLALVSWDIPGARALDNGLARTPTMGWLHWERFMCNLDCQEEPDSCISEKLFMEMAELMVSEGWKDAGYEYLCIDDCWMAPQRDSEGRLQADPQRFPHGIRQLANFVHSKGLKLGIYADVGNKTCAGFPGSFGYYDIDAQTFADWGVDLLKFDGCYCDSLENLADGYKHMSLALNRTGRSIVYSCEWPLYMWPFQKPNYTEIRQYCNHWRNFADIDDSWKSIKSILDWTSFNQERIVDVAGPGGWNDPDMLVIGNFGLSWNQQVTQMALWAIMAAPLFMSNDLRHISPQAKALLQDKDVIAINQDPLGKQGYQLRQGDNFEVWERPLSGLAWAVAMINRQEIGGPRSYTIAVASLGKGVACNPACFITQLLPVKRKLGFYEWTSRLRSHINPTGTVLLQLENTMQMSLKDLL | 33.8 | 1.5 | 97.4 ± 3.4 | 63.6 ± 3.3 | 22066 ± 1408 | 33544 ± 1384
2 | S126I (protein) MQLRNPELHLGCALALRFLALVSWDIPGARALDNGLARTPTMGWLHWERFMCNLDCQEEPDSCISEKLFMEMAELMVSEGWKDAGYEYLCIDDCWMAPQRDSEGRLQADPQRFPHGIRQLANYVHIKGLKLGIYADVGNKTCAGFPGSFGYYDIDAQTFADWGVDLLKFDGCYCDSLENLADGYKHMSLALNRTGRSIVYSCEWPLYMWPFQKPNYTEIRQYCNHWRNFADIDDSWKSIKSILDWTSFNQERIVDVAGPGGWNDPDMLVIGNFGLSWNQQVTQMALWAIMAAPLFMSNDLRHISPQAKALLQDKDVIAINQDPLGKQGYQLRQGDNFEVWERPLSGLAWAVAMINRQEIGGPRSYTIAVASLGKGVACNPACFITQLLPVKRKLGFYEWTSRLRSHINPTGTVLLQLENTMQMSLKDLL | 16.0 | 1.2 | 85.9 ± 5.3 | 69.8 ± 5.1 | 28685 ± 1923 | 35340 ± 2027
3 | H125D (protein) MQLRNPELHLGCALALRFLALVSWDIPGARALDNGLARTPTMGWLHWERFMCNLDCQEEPDSCISEKLFMEMAELMVSEGWKDAGYEYLCIDDCWMAPQRDSEGRLQADPQRFPHGIRQLANYVDSKGLKLGIYADVGNKTCAGFPGSFGYYDIDAQTFADWGVDLLKFDGCYCDSLENLADGYKHMSLALNRTGRSIVYSCEWPLYMWPFQKPNYTEIRQYCNHWRNFADIDDSWKSIKSILDWTSFNQERIVDVAGPGGWNDPDMLVIGNFGLSWNQQVTQMALWAIMAAPLFMSNDLRHISPQAKALLQDKDVIAINQDPLGKQGYQLRQGDNFEVWERPLSGLAWAVAMINRQEIGGPRSYTIAVASLGKGVACNPACFITQLLPVKRKLGFYEWTSRLRSHINPTGTVLLQLENTMQMSLKDLL | 6.5 | 3.3 | 8.8 ± 1.4 | 2.3 ± 0.2 | 995 ± 106 | 3282 ± 375
4 | H125N (protein) MQLRNPELHLGCALALRFLALVSWDIPGARALDNGLARTPTMGWLHWERFMCNLDCQEEPDSCISEKLFMEMAELMVSEGWKDAGYEYLCIDDCWMAPQRDSEGRLQADPQRFPHGIRQLANYVNSKGLKLGIYADVGNKTCAGFPGSFGYYDIDAQTFADWGVDLLKFDGCYCDSLENLADGYKHMSLALNRTGRSIVYSCEWPLYMWPFQKPNYTEIRQYCNHWRNFADIDDSWKSIKSILDWTSFNQERIVDVAGPGGWNDPDMLVIGNFGLSWNQQVTQMALWAIMAAPLFMSNDLRHISPQAKALLQDKDVIAINQDPLGKQGYQLRQGDNFEVWERPLSGLAWAVAMINRQEIGGPRSYTIAVASLGKGVACNPACFITQLLPVKRKLGFYEWTSRLRSHINPTGTVLLQLENTMQMSLKDLL | 14.9 | 1.4 | 48.4 ± 2.7 | 33.5 ± 1.8 | 14162 ± 994 | 20228 ± 1240
5 | Y123S (protein) MQLRNPELHLGCALALRFLALVSWDIPGARALDNGLARTPTMGWLHWERFMCNLDCQEEPDSCISEKLFMEMAELMVSEGWKDAGYEYLCIDDCWMAPQRDSEGRLQADPQRFPHGIRQLANSVHSKGLKLGIYADVGNKTCAGFPGSFGYYDIDAQTFADWGVDLLKFDGCYCDSLENLADGYKHMSLALNRTGRSIVYSCEWPLYMWPFQKPNYTEIRQYCNHWRNFADIDDSWKSIKSILDWTSFNQERIVDVAGPGGWNDPDMLVIGNFGLSWNQQVTQMALWAIMAAPLFMSNDLRHISPQAKALLQDKDVIAINQDPLGKQGYQLRQGDNFEVWERPLSGLAWAVAMINRQEIGGPRSYTIAVASLGKGVACNPACFITQLLPVKRKLGFYEWTSRLRSHINPTGTVLLQLENTMQMSLKDLL | 19.3 | 1.5 | 61 ± 3.6 | 41.7 ± 2.1 | 14556 ± 986 | 21255 ± 1484
6 | H125R (protein) MQLRNPELHLGCALALRFLALVSWDIPGARALDNGLARTPTMGWLHWERFMCNLDCQEEPDSCISEKLFMEMAELMVSEGWKDAGYEYLCIDDCWMAPQRDSEGRLQADPQRFPHGIRQLANYVRSKGLKLGIYADVGNKTCAGFPGSFGYYDIDAQTFADWGVDLLKFDGCYCDSLENLADGYKHMSLALNRTGRSIVYSCEWPLYMWPFQKPNYTEIRQYCNHWRNFADIDDSWKSIKSILDWTSFNQERIVDVAGPGGWNDPDMLVIGNFGLSWNQQVTQMALWAIMAAPLFMSNDLRHISPQAKALLQDKDVIAINQDPLGKQGYQLRQGDNFEVWERPLSGLAWAVAMINRQEIGGPRSYTIAVASLGKGVACNPACFITQLLPVKRKLGFYEWTSRLRSHINPTGTVLLQLENTMQMSLKDLL | 23.0 | 1.6 | 59.1 ± 1.9 | 36 ± 1.2 | 14738 ± 699 | 24004 ± 987
7 | V124I (protein) MQLRNPELHLGCALALRFLALVSWDIPGARALDNGLARTPTMGWLHWERFMCNLDCQEEPDSCISEKLFMEMAELMVSEGWKDAGYEYLCIDDCWMAPQRDSEGRLQADPQRFPHGIRQLANYIHSKGLKLGIYADVGNKTCAGFPGSFGYYDIDAQTFADWGVDLLKFDGCYCDSLENLADGYKHMSLALNRTGRSIVYSCEWPLYMWPFQKPNYTEIRQYCNHWRNFADIDDSWKSIKSILDWTSFNQERIVDVAGPGGWNDPDMLVIGNFGLSWNQQVTQMALWAIMAAPLFMSNDLRHISPQAKALLQDKDVIAINQDPLGKQGYQLRQGDNFEVWERPLSGLAWAVAMINRQEIGGPRSYTIAVASLGKGVACNPACFITQLLPVKRKLGFYEWTSRLRSHINPTGTVLLQLENTMQMSLKDLL | 30.6 | 1.4 | 111.3 ± 4.5 | 80.7 ± 2 | 32074 ± 1858 | 43288 ± 2179
8 | Y123N (protein) MQLRNPELHLGCALALRFLALVSWDIPGARALDNGLARTPTMGWLHWERFMCNLDCQEEPDSCISEKLFMEMAELMVSEGWKDAGYEYLCIDDCWMAPQRDSEGRLQADPQRFPHGIRQLANNVHSKGLKLGIYADVGNKTCAGFPGSFGYYDIDAQTFADWGVDLLKFDGCYCDSLENLADGYKHMSLALNRTGRSIVYSCEWPLYMWPFQKPNYTEIRQYCNHWRNFADIDDSWKSIKSILDWTSFNQERIVDVAGPGGWNDPDMLVIGNFGLSWNQQVTQMALWAIMAAPLFMSNDLRHISPQAKALLQDKDVIAINQDPLGKQGYQLRQGDNFEVWERPLSGLAWAVAMINRQEIGGPRSYTIAVASLGKGVACNPACFITQLLPVKRKLGFYEWTSRLRSHINPTGTVLLQLENTMQMSLKDLL | 19.7 | 1.5 | 60.6 ± 4.1 | 40.9 ± 3.2 | 13817 ± 816 | 20466 ± 846
9 | S126C (protein) MQLRNPELHLGCALALRFLALVSWDIPGARALDNGLARTPTMGWLHWERFMCNLDCQEEPDSCISEKLFMEMAELMVSEGWKDAGYEYLCIDDCWMAPQRDSEGRLQADPQRFPHGIRQLANYVHCKGLKLGIYADVGNKTCAGFPGSFGYYDIDAQTFADWGVDLLKFDGCYCDSLENLADGYKHMSLALNRTGRSIVYSCEWPLYMWPFQKPNYTEIRQYCNHWRNFADIDDSWKSIKSILDWTSFNQERIVDVAGPGGWNDPDMLVIGNFGLSWNQQVTQMALWAIMAAPLFMSNDLRHISPQAKALLQDKDVIAINQDPLGKQGYQLRQGDNFEVWERPLSGLAWAVAMINRQEIGGPRSYTIAVASLGKGVACNPACFITQLLPVKRKLGFYEWTSRLRSHINPTGTVLLQLENTMQMSLKDLL | 7.5 | 1.4 | 24.5 ± 1.5 | 16.9 ± 1.1 | 7046 ± 488 | 10050 ± 554
